Square brackets hold non-standard residues; d marks the D form. Ends that are not written are not given here.
Biological target: T1, lecithin:cholesterol acyltransferase (LCAT), purified from human plasma (human, UniProt P04180 25-440)
T1 sequence (looked up): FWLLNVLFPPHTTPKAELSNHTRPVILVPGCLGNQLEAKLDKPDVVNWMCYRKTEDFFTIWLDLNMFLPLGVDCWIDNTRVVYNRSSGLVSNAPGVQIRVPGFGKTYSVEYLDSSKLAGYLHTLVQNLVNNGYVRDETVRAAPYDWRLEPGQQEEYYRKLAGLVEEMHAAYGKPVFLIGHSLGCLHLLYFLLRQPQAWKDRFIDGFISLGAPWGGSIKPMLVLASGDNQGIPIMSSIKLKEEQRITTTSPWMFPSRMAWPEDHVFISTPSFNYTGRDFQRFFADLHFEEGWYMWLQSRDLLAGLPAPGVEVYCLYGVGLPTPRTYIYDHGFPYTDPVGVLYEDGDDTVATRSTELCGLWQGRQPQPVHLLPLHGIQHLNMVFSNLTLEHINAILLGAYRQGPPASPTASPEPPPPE
Assay: cell-based or functional assay

B1: peptide 55 (SEQ ID NO:55) (peptide)
peptide: [dP]LFRELLNELLEALKQKLK
  ACTIVITY (%) LCAT: 19%

From patent publication US7211565 (ESPERION THERAPEUTICS, dated 2007)
